# ± gives the uncertainty stated by the source.
# Experiment: amyloid nucleation score (Sup35N fusion, yeast selection) (log enrichment); library NNK3; higher = more nucleation; inactive = no reads after selection
# How it was run: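 The nucleation score is the DiMSum log enrichment of output over input reads, centred on the mode score of non-aggregating sequences. Only sequences with 100 or more input reads were scored, using Illumina sequencing of input and output plasmid inserts. Psi-negative yeast expressing Sup35N fused to peptides of 20 random codons were induced 24 hours with 100 μM copper sulfate and grown 7 days at 30°C on medium lacking adenine and uracil.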
row,Substance,amyloid nucleation score
1,GRSMR,inactive
2,GSAECGCFASVYMNSMIKTV,inactive
3,GSCCNQG,inactive
4,GSCSIGSINIAFASSSIVYG,inactive
5,GSFVVMF,inactive
6,GSGLLE,inactive
7,GSHNAMLSAISADAGAWQRE,inactive
8,GSILWGVNMRFLNITAGCDY,inactive
9,GSKCWPDLQMLIFEVVHHRA,inactive
10,GSMLTDIVCFKYKVWDPIIL,inactive
11,GSMMSCWRLAESWVVSKPPG,inactive
12,GSQRLLALWNY,inactive
13,GSRKYRCVDIISFGEWAVLD,inactive
14,GSRLHRFPNVKLDALFIYRW,inactive
15,GSRSARMGVVRRGRRCSECY,inactive
16,GSRVMMCPNT,inactive
17,GSRYRWVTATTIMSCGYEQE,inactive
18,GSSVELVIQSS,0.415 ± 0.28
19,GSVQAFCISKP,inactive
20,GSYWKHVWLRYTSHGLTPQW,inactive
21,GTASRG,inactive
22,GTDSGTRSDNV,0.328 ± 0.63
23,GTFLIFDKFKLS,inactive
24,GTFNIDVEVMVYRAGLFKHV,inactive

row,Substance,amyloid nucleation score
1,GTIHLFYVFLLS,0.205 ± 0.38
2,GTIRQS,inactive
3,GTRMNGSGFVKRAL,inactive
4,GTSAH,inactive
5,GTTSFVLVCVCWSG,-0.409 ± 0.95
6,GVIIRFWYWQDYAASLEYTC,inactive
7,GVMDDSDIL,-0.492 ± 0.84
8,GVMMVMFARL,1.73 ± 0.091
9,GVPLQWSSHAWGFFCWKTPW,inactive
10,GVQAITGPLSVQDVYRWAKP,inactive
11,GVRQVMVSSFRGNHNQKDTS,inactive
12,GVTLGQLR,1.42 ± 0.15
13,GVWKLVSRARNDSINLR,inactive
14,GWHNGDKSYIFVYIRFGPMG,0.955 ± 0.16
15,GWIAYRGSDR,inactive
16,GWKAPLTLRRTLSALDFVLY,0.371 ± 0.38
17,GWLRAMKSIVNLF,inactive
18,GWMQGVLSELTTTLVMESAR,inactive
19,GWRSTYYECSGKSVFNAG,-0.217 ± 0.8
20,GWTGVVFPVVSINSYQFTLF,0.757 ± 0.33
21,GWVIDRLYGDDMSSILEL,inactive
22,GYAHLLMANLRWSSTRLA,inactive
23,GYLFGVRVGCVYELAFDGCR,inactive
24,GYLQGIYYGFTSCRKTSNQD,inactive

row,Substance,amyloid nucleation score
1,GYPVWYVDLFSAKVRMQ,inactive
2,GYQLRRMMQTMRMKYRISSR,inactive
3,GYRSTCVRRFCECRCRDITA,inactive
4,GYTIYGRVNPLVCPWVLVSE,inactive
5,GYTNKLKWGHRITINAFVYR,-0.267 ± 0.68
6,GYVPHVFFRILRLVRENMLE,inactive
7,GYYYNSMNFRWFIKMVVMVR,inactive
8,HALNSCDEFGTVMELCSCGS,inactive
9,HARFTDQKTTPIWCTSVFKK,inactive
10,HAVLFSVDVSYYLVPALLFR,inactive
11,HCNEYSGNVVSRG,inactive
12,HCPVSIY,inactive
13,HCRAYITEPCKTWLY,inactive
14,HCSYEFNS,-0.001 ± 0.4
15,HDCCDLGFSVDV,inactive
16,HDCGYQITYGDNRIVYMCFV,inactive
17,HDLNWNSMVRCRVNVSSVIV,inactive
18,HDYYFDTRDTIRVIL,inactive
19,HEELQKIMIFSCMCYLQVLT,inactive
20,HELDSTTLCVFKPFPFHANL,inactive
21,HEWATWRDVLQVTTFFVLHM,inactive
22,HFCLEYTLNVTMHAWTL,inactive
23,HFKFLYDS,inactive
24,HFKVFT,inactive

row,Substance,amyloid nucleation score
1,HFMMYMLQRVHELFILSKSM,inactive
2,HFPSFFSIIPYRACNTACSA,-0.984 ± 1.4
3,HFSFLL,1.37 ± 0.084
4,HGDDCGDRDCGGRKECTGIA,inactive
5,HGLFTFVGCHCLCRN,0.939 ± 0.16
6,HGSSCTRWAWALMNILDCVM,inactive
7,HGVWRLSYVVVGCPLTEVSP,inactive
8,HICIQDCVD,inactive
9,HINTWRLFRVGIPYVCVSDG,inactive
10,HIRSSDHGGSLTGLTCRDTD,inactive
11,HISWFIFLCGGSFDSVMLAN,inactive
12,HITNGRGWRHGRVWSSIWFF,inactive
13,HKDLRYGWSSS,inactive
14,HKDTSDFISHVRVSPWPNKG,inactive
15,HKGFVSKIGNN,-0.4 ± 0.9
16,HKIWVVQQWGRRRQQ,inactive
17,HKPFNFYLGLPLTVV,inactive
18,HKSIYF,inactive
19,HLGFVEYAAKYTMVVCGRAV,inactive
20,HLGYPVVLVLLLPSDDSGHL,inactive
21,HLLRCYMFIVDEVCWSVVAR,inactive
22,HLMTQMATRRL,inactive
23,HLRFFLRVVGRTFIFCHS,inactive
24,HLSRCYCYNDVSLARNFNDR,inactive

row,Substance,amyloid nucleation score
1,HLVAMMLCQLDTLTFYRYGG,inactive
2,HLYDPVFTKVAPRSSGGYGQ,inactive
3,HMFSGVG,inactive
4,HNFLIMWKSVVVLAVAISAK,0.627 ± 0.18
5,HNGARG,inactive
6,HNGDRVDY,inactive
7,HNLLEETLTWCNIGRGWDD,inactive
8,HPSSNLMHLM,inactive
9,HQARIYVSYYPVLSFDPFRK,2.06 ± 0.074
10,HQTRIMPGLLGKRAFIRVRL,inactive
11,HRDCRKFCSMNTHANMNMLS,inactive
12,HRGIVGCLAYMHMNRIVATT,inactive
13,HRTTWLIWPLS,inactive
14,HSCCDEWRDNGEIGNSSNRE,inactive
15,HSIGPVIKRCCVIFSLR,inactive
16,HSLFIFNFGCL,2.96 ± 0.054
17,HSLTATINTGKLYKSVSKHG,inactive
18,HSMQCNT,inactive
19,HSRRYILNVP,0.935 ± 0.085
20,HSSSVTCI,inactive
21,HSVSLNYLGIR,inactive
22,HSWWLWNGFVGLAPLVDNFF,inactive
23,HSYTWICVARLPHWFWTQCL,1.71 ± 0.075
24,HTFDDSTCSYTWVYFHIWCI,inactive

row,Substance,amyloid nucleation score
1,HTYLLLRDNLLFTVIHTPRN,2.02 ± 0.075
2,HVARFMLNRYLLFGEPYMLK,inactive
3,HVCWVWMCEVFKAAIPSVTD,inactive
4,HVIKNFSADISIDDFFYLGM,inactive
5,HVILICLSFYTKFICPIPEV,inactive
6,HVSSKASLLPMYRY,0.237 ± 0.75
7,HVTPRKN,inactive
8,HWCRQNNSIFMRS,inactive
9,HWGRDFLGFVTAFDGCVSQL,inactive
10,HWLFVVKMMKS,-0.093 ± 0.41
11,HYLWCVYII,inactive
12,HYNVPL,inactive
13,HYRVLPPAVVRRRVMLL,inactive
14,HYVPVASDVRGMIYFRSFEW,inactive
15,HYWYE,inactive
16,IACFMI,inactive
17,IAGTIRVFYVFKAYADSPTW,inactive
18,IAHPSHGS,0.432 ± 0.22
19,IASEFVRGKHSHYM,inactive
20,IASSSWHVMIWYSPRSCVFS,inactive
21,IAVVTSNWVADLSPGNHTCM,-0.49 ± 0.96
22,ICDLSREYSNHGFVLMDEIR,inactive
23,ICHFTLM,inactive
24,ICIHLELRILCPHHAPDGSL,-0.118 ± 0.43

row,Substance,amyloid nucleation score
1,ICKRYYLPINFRG,inactive
2,ICLAFRPECCCGIWTDKRIG,1.74 ± 0.088
3,ICTCKWRLTLEQTSFVDGLT,inactive
4,ICTGDSNNSGYVCQLVTKEE,inactive
5,IDCLLLFSIGEVLKSGNNSR,0.335 ± 0.17
6,IDGTCFARIFRCCIFYLR,inactive
7,IDPQS,inactive
8,IDTTQVLGMNS,inactive
9,IDVKMGSYFVYHDGLFIFRV,inactive
10,IDYSNVYSISRPSMFCWRNN,inactive
11,IECRARRSVCLL,inactive
12,IEFMCLHGKVTLITIVF,inactive
13,IEGSKSDNIGIVHDFMFES,inactive
14,IENNSPLSSFLGYGKCIP,inactive
15,IFASDTVL,inactive
16,IFIMKARSKFPRVPFFQEFP,1.23 ± 0.13
17,IFKNTVTLRN,inactive
18,IFLCLSICMFRPFRMVLS,inactive

# Source: the supplement of paper PMC12042874
